The experiment has as its system E2F1/Dp-1 heterodimer. The experiment can be described thus: Rb activity assay (LB-Rb with E2F1-SB, DP1 split luciferase). In kind it is cell-based, human. Further details: key to Observed activity: N—no activity; A—active as WT; R—reduced activity compared to the WT. Particulars: Rb mutants; for % (/wt): activity relative to WT. From the text: An assay that could measure the interaction between Rb, E2F1, and Dp-1 was developed. Since Dp-1 forms a heterodimer with E2F1 and that interaction is crucial for Rb/E2F1 binding, the assay was comprised of three components. When two proteins (Rb and E2F1) are in close proximity or in complex, a light signal was observed. For the purposes of the current assay, split-luciferase complementation was used to measure the interaction between Rb and E2F1. The NanoBiT assay system by Promega (Madison, Wis.; Dixon et al., 2015, ACS ChemBiol) was used in our split luciferase complementation design.
FIG. 16 depicts the design of a signal system to measure Rb activity. Under basal conditions inside the cell, Rb was active and interacted with the E2F1/Dp-1 heterodimer. For this assay design, cDNAs of Rb linked to different parts of the luciferase protein, either termed as the “Small BiT” (SB), or “Large BiT” (LB) and E2F1 linked to the opposite portion of the luciferase protein were created. When Rb and E2F1/Dp-1 bind, the NanoBiT parts of the luciferase form a complex and emitted a light signal when the luciferase (NanoGlo) substrate was added.
Using the described assay design, HEK293 CDK DKO cells were transiently transfected with different combinations of SB-Rb or LB-Rb and E2F1-LB or E2F1-SB components containing C-terminal and N-terminal constructs (FIG. 17). Relative intensities generated are presented in FIG. 17 as relative luminescence units (RLU). The data represents a sample experiment where each condition was performed in triplicate and represent mean+SD.
The LB-Rb and E2F1-SB with Dp-1 were tested for Rb activity using known Rb null mutants: R661W and C706F (FIG. 18A). […] Rb in-frame (del35) and out-of frame (del1) deletion mutants (FIG. 18B) were constructed and the observed luciferase activity was close to 0, in particular for del1 mutant, because Rb-E2F1 binding was destroyed.
Within the provided assay design, stable cell lines using the HEK293 CDK DKO cell parent line expressing E2F1-SB and Dp-1 were produced. After selection and screening for positive clones using an LB-Rb-mediated increase in signal, four stable single cell clones were selected and evaluated using different Rb mutants (FIGS. 19A and 19B). The response to E2F1 interaction was also checked by using the plasmid and linear form of DNA. Cell line #37 was selected for all our experiments in assay development due to its favorable response.
The conditions of the assay were further optimized by analyzing different cell numbers and Rb concentrations (FIG. 20). Based on the data, it was decided to use 0.2×10^6 cells/ml and 70 ng of DNA in the assay.
Known null and out/in-frame deletion mutants disrupting E2F1 binding and unknown COSMIC mutants were created to examine the ability of the assay to detect variants in Rb that affect function. We transfected WT or mutated Rb using similar conditions as previously indicated (FIG. 20). […] In addition, the null C706F and deletion (del1) mutants presented a signal close to zero as expected for loss of function mutants that disrupt E2F1 interaction. […] This confirmed that the assay was capable of determining the relative activity level of Rb mutants. The data is provided in Luminescence (RLU) of a single experiment with each condition performed in triplicate and represent average+SD.

Chain of E2F1/Dp-1 heterodimer (Q01094 58-437 limits assumed): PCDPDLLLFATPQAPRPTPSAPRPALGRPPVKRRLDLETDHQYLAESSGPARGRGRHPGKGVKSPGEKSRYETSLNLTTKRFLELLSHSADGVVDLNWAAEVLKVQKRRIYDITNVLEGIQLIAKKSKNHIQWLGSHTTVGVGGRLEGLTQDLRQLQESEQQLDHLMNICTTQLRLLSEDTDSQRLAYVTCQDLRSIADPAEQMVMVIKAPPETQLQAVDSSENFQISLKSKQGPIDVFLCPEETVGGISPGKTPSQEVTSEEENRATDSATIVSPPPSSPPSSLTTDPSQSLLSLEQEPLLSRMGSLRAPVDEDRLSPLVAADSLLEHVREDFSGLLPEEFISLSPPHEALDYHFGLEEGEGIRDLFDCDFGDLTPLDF
Chain of E2F1/Dp-1 heterodimer (Q14186 whole entry, further chain): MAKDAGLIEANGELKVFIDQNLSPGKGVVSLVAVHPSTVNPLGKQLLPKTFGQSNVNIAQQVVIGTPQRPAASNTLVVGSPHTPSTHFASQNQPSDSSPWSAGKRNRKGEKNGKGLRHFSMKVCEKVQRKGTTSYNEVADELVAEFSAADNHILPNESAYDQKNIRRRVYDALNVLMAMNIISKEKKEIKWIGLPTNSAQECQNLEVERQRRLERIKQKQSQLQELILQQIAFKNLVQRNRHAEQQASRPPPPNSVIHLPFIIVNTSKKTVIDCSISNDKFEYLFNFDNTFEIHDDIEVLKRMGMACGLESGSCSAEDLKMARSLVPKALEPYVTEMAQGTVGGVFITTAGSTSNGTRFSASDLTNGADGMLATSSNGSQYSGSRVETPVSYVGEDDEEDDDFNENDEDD

B1: Rb L665R: Rb mutant from COSMIC database (protein, UniProt P06400 2-928, looked up, variant L665R)
Retinoblastoma-associated …: PPKTPRKTAATAAAAAAEPPAPPPPPPPEEDPEQDSGPEDLPLVRLEFEETEEPDFTALCQKLKIPDHVRERAWLTWEKVSSVDGVLGGYIQKKKELWGICIFIAAVDLDEMSFTFTELQKNIEISVHKFFNLLKEIDTSTKVDNAMSRLLKKYDVLFALFSKLERTCELIYLTQPSSSISTEINSALVLKVSWITFLLAKGEVLQMEDDLVISFQLMLCVLDYFIKLSPPMLLKEPYKTAVIPINGSPRTPRRGQNRSARIAKQLENDTRIIEVLCKEHECNIDEVKNVYFKNFIPFMNSLGLVTSNGLPEVENLSKRYEEIYLKNKDLDARLFLDHDKTLQTDSIDSFETQRTPRKSNLDEEVNVIPPHTPVRTVMNTIQQLMMILNSASDQPSENLISYFNNCTVNPKESILKRVKDIGYIFKEKFAKAVGQGCVEIGSQRYKLGVRLYYRVMESMLKSEEERLSIQNFSKLLNDNIFHMSLLACALEVVMATYSRSTSQNLDSGTDLSFPWILNVLNLKAFDFYKVIESFIKAEGNLTREMIKHLERCEHRIMESLAWLSDSPLFDLIKQSKDREGPTDHLESACPLNLPLQNNHTAADMYLSPVRSPKKKGSTTRVNSTANAETQATSAFQTQKPLKSTSLSLFYKKVYRLAYLRLNTRCERLLSEHPELEHIIWTLFQHTLQNEYELMRDRHLDQIMMCSMYGICKVKNIDLKFKIIVTAYKDLPHAVQETFKRVLIKEEEYDSIIVFYNSVFMQRLKTNILQYASTRPPTLSPIPHIPRSPYKFPSSPLRIPGGNIYISPLKSPYKISEGLPTPTKMTPRSRILVSIGESFGTSEKFQKINQMVCNSDRVLKRSAEGSNPPKPLKKLRFDIEGSDEADGSKHLPGESKFQQKLAEMTSTRTRMQKQKMNDSMDTSNKEEK
Regarding B1, the Observed activity entry was “N” and the “% (/wt)” value is 5%.

B2: Rb V654M: Rb mutant from COSMIC database (protein, UniProt P06400 2-928, looked up, variant V654M)
Retinoblastoma-associated …: PPKTPRKTAATAAAAAAEPPAPPPPPPPEEDPEQDSGPEDLPLVRLEFEETEEPDFTALCQKLKIPDHVRERAWLTWEKVSSVDGVLGGYIQKKKELWGICIFIAAVDLDEMSFTFTELQKNIEISVHKFFNLLKEIDTSTKVDNAMSRLLKKYDVLFALFSKLERTCELIYLTQPSSSISTEINSALVLKVSWITFLLAKGEVLQMEDDLVISFQLMLCVLDYFIKLSPPMLLKEPYKTAVIPINGSPRTPRRGQNRSARIAKQLENDTRIIEVLCKEHECNIDEVKNVYFKNFIPFMNSLGLVTSNGLPEVENLSKRYEEIYLKNKDLDARLFLDHDKTLQTDSIDSFETQRTPRKSNLDEEVNVIPPHTPVRTVMNTIQQLMMILNSASDQPSENLISYFNNCTVNPKESILKRVKDIGYIFKEKFAKAVGQGCVEIGSQRYKLGVRLYYRVMESMLKSEEERLSIQNFSKLLNDNIFHMSLLACALEVVMATYSRSTSQNLDSGTDLSFPWILNVLNLKAFDFYKVIESFIKAEGNLTREMIKHLERCEHRIMESLAWLSDSPLFDLIKQSKDREGPTDHLESACPLNLPLQNNHTAADMYLSPVRSPKKKGSTTRVNSTANAETQATSAFQTQKPLKSTSLSLFYKKMYRLAYLRLNTLCERLLSEHPELEHIIWTLFQHTLQNEYELMRDRHLDQIMMCSMYGICKVKNIDLKFKIIVTAYKDLPHAVQETFKRVLIKEEEYDSIIVFYNSVFMQRLKTNILQYASTRPPTLSPIPHIPRSPYKFPSSPLRIPGGNIYISPLKSPYKISEGLPTPTKMTPRSRILVSIGESFGTSEKFQKINQMVCNSDRVLKRSAEGSNPPKPLKKLRFDIEGSDEADGSKHLPGESKFQQKLAEMTSTRTRMQKQKMNDSMDTSNKEEK
As to B2, the Observed activity entry was “A” and the “% (/wt)” value is listed as 132%.

B3: Rb I724N: Rb mutant from COSMIC database (protein, UniProt P06400 2-928, looked up, variant I724N)
Retinoblastoma-associated …: PPKTPRKTAATAAAAAAEPPAPPPPPPPEEDPEQDSGPEDLPLVRLEFEETEEPDFTALCQKLKIPDHVRERAWLTWEKVSSVDGVLGGYIQKKKELWGICIFIAAVDLDEMSFTFTELQKNIEISVHKFFNLLKEIDTSTKVDNAMSRLLKKYDVLFALFSKLERTCELIYLTQPSSSISTEINSALVLKVSWITFLLAKGEVLQMEDDLVISFQLMLCVLDYFIKLSPPMLLKEPYKTAVIPINGSPRTPRRGQNRSARIAKQLENDTRIIEVLCKEHECNIDEVKNVYFKNFIPFMNSLGLVTSNGLPEVENLSKRYEEIYLKNKDLDARLFLDHDKTLQTDSIDSFETQRTPRKSNLDEEVNVIPPHTPVRTVMNTIQQLMMILNSASDQPSENLISYFNNCTVNPKESILKRVKDIGYIFKEKFAKAVGQGCVEIGSQRYKLGVRLYYRVMESMLKSEEERLSIQNFSKLLNDNIFHMSLLACALEVVMATYSRSTSQNLDSGTDLSFPWILNVLNLKAFDFYKVIESFIKAEGNLTREMIKHLERCEHRIMESLAWLSDSPLFDLIKQSKDREGPTDHLESACPLNLPLQNNHTAADMYLSPVRSPKKKGSTTRVNSTANAETQATSAFQTQKPLKSTSLSLFYKKVYRLAYLRLNTLCERLLSEHPELEHIIWTLFQHTLQNEYELMRDRHLDQIMMCSMYGICKVKNIDLKFKINVTAYKDLPHAVQETFKRVLIKEEEYDSIIVFYNSVFMQRLKTNILQYASTRPPTLSPIPHIPRSPYKFPSSPLRIPGGNIYISPLKSPYKISEGLPTPTKMTPRSRILVSIGESFGTSEKFQKINQMVCNSDRVLKRSAEGSNPPKPLKKLRFDIEGSDEADGSKHLPGESKFQQKLAEMTSTRTRMQKQKMNDSMDTSNKEEK
As to B3, the Observed activity result is “N” and the “% (/wt)” value came out at 7.4%.

B4: Rb R621S: Rb mutant from COSMIC database (protein, UniProt P06400 2-928, looked up, variant R621S)
Retinoblastoma-associated …: PPKTPRKTAATAAAAAAEPPAPPPPPPPEEDPEQDSGPEDLPLVRLEFEETEEPDFTALCQKLKIPDHVRERAWLTWEKVSSVDGVLGGYIQKKKELWGICIFIAAVDLDEMSFTFTELQKNIEISVHKFFNLLKEIDTSTKVDNAMSRLLKKYDVLFALFSKLERTCELIYLTQPSSSISTEINSALVLKVSWITFLLAKGEVLQMEDDLVISFQLMLCVLDYFIKLSPPMLLKEPYKTAVIPINGSPRTPRRGQNRSARIAKQLENDTRIIEVLCKEHECNIDEVKNVYFKNFIPFMNSLGLVTSNGLPEVENLSKRYEEIYLKNKDLDARLFLDHDKTLQTDSIDSFETQRTPRKSNLDEEVNVIPPHTPVRTVMNTIQQLMMILNSASDQPSENLISYFNNCTVNPKESILKRVKDIGYIFKEKFAKAVGQGCVEIGSQRYKLGVRLYYRVMESMLKSEEERLSIQNFSKLLNDNIFHMSLLACALEVVMATYSRSTSQNLDSGTDLSFPWILNVLNLKAFDFYKVIESFIKAEGNLTREMIKHLERCEHRIMESLAWLSDSPLFDLIKQSKDREGPTDHLESACPLNLPLQNNHTAADMYLSPVRSPKKKGSTTSVNSTANAETQATSAFQTQKPLKSTSLSLFYKKVYRLAYLRLNTLCERLLSEHPELEHIIWTLFQHTLQNEYELMRDRHLDQIMMCSMYGICKVKNIDLKFKIIVTAYKDLPHAVQETFKRVLIKEEEYDSIIVFYNSVFMQRLKTNILQYASTRPPTLSPIPHIPRSPYKFPSSPLRIPGGNIYISPLKSPYKISEGLPTPTKMTPRSRILVSIGESFGTSEKFQKINQMVCNSDRVLKRSAEGSNPPKPLKKLRFDIEGSDEADGSKHLPGESKFQQKLAEMTSTRTRMQKQKMNDSMDTSNKEEK
On to B4, for which the Observed activity entry was “A” and the “% (/wt)” value stood at 124%.

Values taken from patent US11702666B2, “Cell-based assay for determining activity in the retinoblastoma pathway” (Medical Diagnostic Laboratories, LLC, priority 2017, dated 2023).
